Assay results as given in patent publication US20200317768A1 (published 2020).

How the values were obtained:
Assay in all cases: SPR (Biacore), antibody captured, FcgR analyte
[1] = molecular target: T1, cynomolgus monkey FcγRIIa1 extracellular domain, C-terminal His-tag (cynomolgus monkey)
T1 construct: also called cyno FcγRIIa1; cynoFcgRIIa1
T1 chain: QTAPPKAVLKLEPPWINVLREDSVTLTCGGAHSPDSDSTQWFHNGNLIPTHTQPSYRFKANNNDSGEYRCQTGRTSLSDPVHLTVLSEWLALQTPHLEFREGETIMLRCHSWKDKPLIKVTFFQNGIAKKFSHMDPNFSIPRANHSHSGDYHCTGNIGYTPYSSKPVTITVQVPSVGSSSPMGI

[2] = molecular target: T2, cynomolgus monkey FcγRIIa2 extracellular domain, C-terminal His-tag (cynomolgus monkey)
T2 construct: also called cyno FcγRIIa2; cynoFcgRIIa2
T2 chain: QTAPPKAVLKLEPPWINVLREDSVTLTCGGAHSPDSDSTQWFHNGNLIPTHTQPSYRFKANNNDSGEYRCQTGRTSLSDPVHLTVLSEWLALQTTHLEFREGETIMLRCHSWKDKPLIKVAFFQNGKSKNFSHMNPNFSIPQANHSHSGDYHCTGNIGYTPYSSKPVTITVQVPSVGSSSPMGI

[3] = molecular target: T3, cynomolgus monkey FcγRIIa3 extracellular domain, C-terminal His-tag (cynomolgus monkey)
T3 construct: also called cyno FcγRIIa3; cynoFcgRIIa3
T3 chain: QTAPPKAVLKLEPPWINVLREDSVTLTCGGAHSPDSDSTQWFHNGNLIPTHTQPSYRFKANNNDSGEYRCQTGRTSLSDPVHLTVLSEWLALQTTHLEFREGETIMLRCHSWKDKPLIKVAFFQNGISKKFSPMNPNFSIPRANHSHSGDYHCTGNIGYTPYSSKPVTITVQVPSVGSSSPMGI

[4] = molecular target: T4, cynomolgus monkey FcγRIIb extracellular domain, C-terminal His-tag (cynomolgus monkey)
T4 construct: also called cyno FcγRIIb; cynoFcγRIIb
T4 chain: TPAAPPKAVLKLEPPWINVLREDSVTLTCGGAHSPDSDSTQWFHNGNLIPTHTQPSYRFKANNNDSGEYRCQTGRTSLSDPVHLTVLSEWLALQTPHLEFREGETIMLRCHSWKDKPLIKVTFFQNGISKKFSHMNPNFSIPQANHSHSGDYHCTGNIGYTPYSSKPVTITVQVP

[5] = molecular target: T5, cynomolgus monkey FcγRIIIaS extracellular domain, C-terminal His-tag (cynomolgus monkey, UniProt Q8SPW2 21-206 at identity 1.00))
T5 construct: also called cyno FcγRIIIaS; cynoFcγRIIIaS
T5 chain: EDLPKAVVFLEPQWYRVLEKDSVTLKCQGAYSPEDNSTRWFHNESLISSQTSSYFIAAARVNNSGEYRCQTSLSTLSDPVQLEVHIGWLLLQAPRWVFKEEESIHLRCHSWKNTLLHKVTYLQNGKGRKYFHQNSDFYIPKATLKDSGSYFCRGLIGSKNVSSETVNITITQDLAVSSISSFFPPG

[6] = molecular target: T6, human FcγRIIaH extracellular domain, C-terminal His-tag (human, UniProt P12318 34-217)
T6 construct: also called human FcγRIIa (type H); FcgRIIaH
T6 sequence: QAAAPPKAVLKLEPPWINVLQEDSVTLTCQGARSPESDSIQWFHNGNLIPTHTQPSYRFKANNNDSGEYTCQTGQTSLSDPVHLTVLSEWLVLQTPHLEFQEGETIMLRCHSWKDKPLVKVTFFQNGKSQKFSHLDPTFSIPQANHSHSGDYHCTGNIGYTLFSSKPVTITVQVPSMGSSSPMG

[7] = molecular target: T7, human FcγRIIaR extracellular domain, C-terminal His-tag (human, UniProt P12318 34-217)
T7 construct: also called human FcγRIIa (type R); FcgRIIaR
T7 chain: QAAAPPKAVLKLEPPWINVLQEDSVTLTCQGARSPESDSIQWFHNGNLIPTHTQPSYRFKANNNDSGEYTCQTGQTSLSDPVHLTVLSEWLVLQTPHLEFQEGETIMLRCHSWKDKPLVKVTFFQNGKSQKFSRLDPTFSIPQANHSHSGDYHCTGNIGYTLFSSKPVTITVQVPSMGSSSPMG

[8] = molecular target: T8, human FcγRIIb extracellular domain, C-terminal His-tag (human, UniProt P31994 43-217)
T8 construct: also called human FcgRIIb; FcgRIIb
T8 sequence: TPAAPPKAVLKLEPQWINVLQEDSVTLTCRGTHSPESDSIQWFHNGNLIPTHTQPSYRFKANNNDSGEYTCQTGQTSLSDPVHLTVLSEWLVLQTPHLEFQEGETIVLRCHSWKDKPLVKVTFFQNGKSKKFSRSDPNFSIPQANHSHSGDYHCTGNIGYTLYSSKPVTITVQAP

[9] = molecular target: T9, human FcγRIIIaV extracellular domain, C-terminal His-tag (human, UniProt P08637 17-208)
T9 construct: also called human FcgRIIIaV; FcgRIIIaV
T9 sequence (P08637 17-208 F176V): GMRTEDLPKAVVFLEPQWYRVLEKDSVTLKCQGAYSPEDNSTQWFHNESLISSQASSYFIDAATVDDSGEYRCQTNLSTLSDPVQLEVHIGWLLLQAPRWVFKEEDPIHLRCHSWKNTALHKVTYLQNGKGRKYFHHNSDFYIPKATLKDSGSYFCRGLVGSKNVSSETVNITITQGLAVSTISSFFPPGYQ

Kd [1]: 1.6 µM
Kd [2]: 1.8 µM
Kd [3]: 48 µM
Kd [4]: 0.46 µM
Kd [5]: 9.3 µM
Kd [6]: 0.91 µM
Kd [7]: 11 µM
Kd [8]: 0.8 µM
Kd [9]: 27 µM
B1: M103205H795-MY440/M103202L889-SK1 (antibody, human IgG1, kappa)
heavy: QVTLKESGPVLVKPTETLTLTCTVSGIDLSHDDISWVRQAPGKGLEWVGIISYAGSTYYASWAKGRLTISKDTSKNQVVLTMTNMDPVDTATYYCARGVPAYSHGGDLWGQGTLVTVSSASTKGPSVFPLAPSSKSTSGGTAALGCLVKDYFPEPVTVSWNSGALTSGVHTFPAVLQSSGLYSLSSVVTVPSSSLGTQTYICNVNHKPSNTKVDKKVEPKSCDKTHTCPPCPAPELWNGPSVFLFPPKPKDTLMISRTPEVTCVVVDVSDEDPEVKFNWYVDGVEVHNAKTKPREELYNSTYRVVSVLTVLHQDWLNGKEYKCKVSNKALPKPIEKTISKAKGQPREPQVYTLPPSREEMTKNQVSLTCLVKGFYPSDIAVEWESNGQPENNYKTTPPVLDSDGSFFLYSKLTVDKSRWQQGNVFSCSVMHEALHNHYTQKSLSLSP
light: DIVMTQSPATLSLSPGERATLSCTSSQSVYHANWLSWFQQKPGQPPKLLIYWASTLAYGVPSRFSGSGSGTDFTLTISSLQPEDAATYYCAGGYGGGRYAFGQGTKVEIKRTVAAPSVFIFPPSDEQLKSGTASVVCLLNNFYPREAKVQWKVDNALQSGNSQESVTEQDSKDSTYSLSSTLTLSKADYEKHKVYACEVTHQGLSSPVTKSFNRGEC
notes: Substitutions introduced into M103205H795-SG1; expressed with M103202L889-SK1 as light chain
